Bridge positions count the residues as written; N and C are the ends.
T1: MAO-A (Rattus norvegicus (Rat)), P21396
T1 chain: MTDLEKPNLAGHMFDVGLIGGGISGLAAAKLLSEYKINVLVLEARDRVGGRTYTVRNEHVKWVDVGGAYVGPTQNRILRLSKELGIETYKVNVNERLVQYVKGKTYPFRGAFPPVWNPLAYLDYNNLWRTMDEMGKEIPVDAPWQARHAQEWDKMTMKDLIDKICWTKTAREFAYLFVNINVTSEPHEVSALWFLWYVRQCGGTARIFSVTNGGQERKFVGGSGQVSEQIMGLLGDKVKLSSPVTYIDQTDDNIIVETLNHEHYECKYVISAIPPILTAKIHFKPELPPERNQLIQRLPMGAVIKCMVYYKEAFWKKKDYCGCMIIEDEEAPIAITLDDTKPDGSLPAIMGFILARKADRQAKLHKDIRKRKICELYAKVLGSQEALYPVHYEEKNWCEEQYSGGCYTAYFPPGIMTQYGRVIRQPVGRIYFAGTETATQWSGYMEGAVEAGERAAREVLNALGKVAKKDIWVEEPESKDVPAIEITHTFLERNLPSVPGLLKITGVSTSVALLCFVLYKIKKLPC

T2: 5-HT3 (h) (human), P46098
T2 chain: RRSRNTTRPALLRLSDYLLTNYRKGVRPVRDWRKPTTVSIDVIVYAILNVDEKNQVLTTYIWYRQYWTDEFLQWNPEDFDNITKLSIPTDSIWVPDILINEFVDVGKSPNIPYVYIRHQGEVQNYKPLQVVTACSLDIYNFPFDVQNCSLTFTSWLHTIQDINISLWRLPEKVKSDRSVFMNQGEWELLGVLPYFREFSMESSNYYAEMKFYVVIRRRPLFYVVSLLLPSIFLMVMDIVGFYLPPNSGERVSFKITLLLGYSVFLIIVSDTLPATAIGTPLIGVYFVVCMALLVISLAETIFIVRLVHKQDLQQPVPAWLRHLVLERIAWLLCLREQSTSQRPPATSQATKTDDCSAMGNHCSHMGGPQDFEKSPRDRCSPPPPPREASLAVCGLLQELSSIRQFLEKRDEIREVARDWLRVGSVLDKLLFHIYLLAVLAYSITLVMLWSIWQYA

T3: M2 (h) (human), P08172
T3 chain: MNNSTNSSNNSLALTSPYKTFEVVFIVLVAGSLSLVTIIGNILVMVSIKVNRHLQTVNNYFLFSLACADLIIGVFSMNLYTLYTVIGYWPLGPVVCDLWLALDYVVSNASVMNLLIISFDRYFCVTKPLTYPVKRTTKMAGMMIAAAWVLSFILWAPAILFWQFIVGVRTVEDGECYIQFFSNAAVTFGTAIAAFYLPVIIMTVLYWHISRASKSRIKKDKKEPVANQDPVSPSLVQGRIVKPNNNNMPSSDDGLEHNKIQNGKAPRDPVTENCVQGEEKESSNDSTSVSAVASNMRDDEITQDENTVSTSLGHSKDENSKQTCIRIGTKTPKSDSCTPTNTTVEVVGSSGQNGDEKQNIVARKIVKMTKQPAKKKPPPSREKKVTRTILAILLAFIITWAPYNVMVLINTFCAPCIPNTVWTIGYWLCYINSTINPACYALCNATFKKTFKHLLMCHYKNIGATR

T4: M1 (h) (human), P11229
T4 chain: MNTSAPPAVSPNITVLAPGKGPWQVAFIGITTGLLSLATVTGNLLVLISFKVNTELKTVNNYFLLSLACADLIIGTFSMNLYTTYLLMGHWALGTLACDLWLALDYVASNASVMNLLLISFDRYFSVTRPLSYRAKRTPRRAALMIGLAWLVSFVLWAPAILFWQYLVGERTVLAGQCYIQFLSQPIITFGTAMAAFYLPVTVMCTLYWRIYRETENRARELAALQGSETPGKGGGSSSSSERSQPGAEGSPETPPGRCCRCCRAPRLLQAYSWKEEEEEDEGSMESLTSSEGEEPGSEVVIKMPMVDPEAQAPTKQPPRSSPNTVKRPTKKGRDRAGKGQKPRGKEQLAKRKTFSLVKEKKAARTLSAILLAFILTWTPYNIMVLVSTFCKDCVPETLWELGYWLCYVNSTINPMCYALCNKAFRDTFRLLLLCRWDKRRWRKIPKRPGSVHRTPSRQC

B1: Hex-[Cys(tMeBn(DOTA-PP))-Pro-Pro-Thr-Gln-Phe-Cys]-Asp-NH2 (peptide)
peptide: Hex-CPPTQFCD-NH2
modifications: bridge 1-7; not fully specified (bridges); printed as Hex-[Cys(tMeBn(DOTA-PP))-Pro-Pro-Thr-Gln-Phe-Cys]-Asp-NH2
B2: Hex-[Cys(tMeBn(DOTA-AET))-Pro-Pro-Thr-Gln-Phe-Cys]-OH (peptide)
peptide: Hex-CPPTQFC-OH
modifications: bridge 1-7; not fully specified (bridges); printed as Hex-[Cys(tMeBn(DOTA-AET))-Pro-Pro-Thr-Gln-Phe-Cys]-OH

Tests used:
Test in all cases: radioligand displacement (antagonist radioligand), 10 µM
[1] = target: T1, MAO-A (Rattus norvegicus (Rat)), P21396
[2] = target: T2, 5-HT3 (h) (human), P46098; conditions: remark: other sources report otherwise
[3] = target: beta 2 (h) (human), P07550; conditions: remark: other sources report otherwise
NMDA = target: NMDA
M2 (h) (human), P08172 = target: T3, M2 (h) (human), P08172; conditions: remark: other sources report otherwise
[4] = target: 5-HT transporter (h) (human), P31645; conditions: remark: other sources report otherwise
Sequence of 5-HT transporter (h) (human), P31645 (P31645 whole entry): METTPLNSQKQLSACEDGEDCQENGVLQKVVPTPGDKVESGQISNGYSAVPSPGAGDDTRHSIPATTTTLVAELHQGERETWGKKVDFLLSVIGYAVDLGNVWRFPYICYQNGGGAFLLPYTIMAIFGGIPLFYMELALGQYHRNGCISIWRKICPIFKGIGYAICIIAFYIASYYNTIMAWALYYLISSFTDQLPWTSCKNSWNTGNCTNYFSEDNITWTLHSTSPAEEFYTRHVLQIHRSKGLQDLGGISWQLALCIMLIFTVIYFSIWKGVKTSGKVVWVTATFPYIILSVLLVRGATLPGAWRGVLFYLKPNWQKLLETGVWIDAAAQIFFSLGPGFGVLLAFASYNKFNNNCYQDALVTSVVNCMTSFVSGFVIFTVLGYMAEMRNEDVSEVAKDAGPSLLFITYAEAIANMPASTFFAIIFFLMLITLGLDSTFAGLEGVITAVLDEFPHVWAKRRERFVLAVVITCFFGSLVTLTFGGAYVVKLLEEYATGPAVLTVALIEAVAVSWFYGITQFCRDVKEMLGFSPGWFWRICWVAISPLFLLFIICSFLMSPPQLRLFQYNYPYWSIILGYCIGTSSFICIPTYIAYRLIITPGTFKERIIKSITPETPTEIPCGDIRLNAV

H2 (h) (human), P25021 = conditions: remark: other sources report otherwise
Sequence of H2 (h) (human), P25021 (P25021 whole entry): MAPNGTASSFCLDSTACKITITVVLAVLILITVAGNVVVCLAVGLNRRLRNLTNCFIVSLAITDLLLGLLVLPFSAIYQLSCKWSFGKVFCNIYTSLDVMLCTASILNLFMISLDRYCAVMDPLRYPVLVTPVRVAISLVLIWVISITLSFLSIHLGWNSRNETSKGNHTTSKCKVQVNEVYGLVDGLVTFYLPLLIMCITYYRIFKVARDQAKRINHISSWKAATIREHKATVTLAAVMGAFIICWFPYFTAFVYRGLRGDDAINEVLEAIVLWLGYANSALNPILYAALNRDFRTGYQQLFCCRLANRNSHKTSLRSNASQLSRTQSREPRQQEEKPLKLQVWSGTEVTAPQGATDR

KV channel = target: KV channel
[5] = target: Ca2+ channel (L, dihydropyridine site)
H1 (h) (human), P35367 = conditions: remark: other sources report otherwise
Sequence of H1 (h) (human), P35367 (P35367 whole entry): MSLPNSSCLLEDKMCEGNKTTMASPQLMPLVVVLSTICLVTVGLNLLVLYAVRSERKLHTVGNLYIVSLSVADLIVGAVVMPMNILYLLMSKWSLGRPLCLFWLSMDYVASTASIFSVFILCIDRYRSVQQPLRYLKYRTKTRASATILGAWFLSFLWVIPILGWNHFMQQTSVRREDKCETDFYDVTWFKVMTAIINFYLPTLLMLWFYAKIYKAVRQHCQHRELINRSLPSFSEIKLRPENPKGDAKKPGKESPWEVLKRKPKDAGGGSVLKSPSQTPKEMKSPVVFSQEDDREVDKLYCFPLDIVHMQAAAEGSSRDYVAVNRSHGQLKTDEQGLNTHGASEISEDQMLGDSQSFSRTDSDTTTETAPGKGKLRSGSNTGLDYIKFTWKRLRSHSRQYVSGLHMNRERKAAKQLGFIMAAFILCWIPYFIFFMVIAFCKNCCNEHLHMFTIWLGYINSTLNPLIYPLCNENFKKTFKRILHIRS

Na+ channel (site 2) = target: Na+ channel (site 2)
M1 (h) (human), P11229 = target: T4, M1 (h) (human), P11229; conditions: remark: other sources report otherwise

| Binder | % Inhibition of Specific Binding [1] | % Inhibition of Specific Binding [2] | % Inhibition of Specific Binding [3] | % Inhibition of Specific Binding (NMDA) | % Inhibition of Specific Binding (M2 (h) (human), P08172) | % Inhibition of Specific Binding [4] | % Inhibition of Specific Binding (H2 (h) (human), P25021) | % Inhibition of Specific Binding (KV channel) | % Inhibition of Specific Binding [5] | % Inhibition of Specific Binding (H1 (h) (human), P35367) | % Inhibition of Specific Binding (Na+ channel (site 2)) | % Inhibition of Specific Binding (M1 (h) (human), P11229) |
| --- | --- | --- | --- | --- | --- | --- | --- | --- | --- | --- | --- | --- |
| B1 | -5% | 2% | 4% | 9% | -4% | -3% | -5% | -5% | 42% | 11% | -7% | 6% |
| B2 | -25% | 4% | 8% | 1% | 7% | -8% | -16% | 4% | 54% | 4% | 14% | 8% |

Reference: patent US20230212549A1, “COMPOUNDS COMPRISING A […] LIGAND AND USE THEREOF” (priority 2021, published 2023)
